This is an account of results in patent US20240116985A1 (published 2024).

As usually defined, the EC50 is the midpoint of the concentration-response curve. Lower therefore signals greater potency.

Starred links: 1 amine or outer side, 2 acyl side, 3 side chain; linkers in the order of their positions; H or OH if unused. Positions of bridges follow the written chain, without caps; N, C: chain ends. Non-standard residues stand in square brackets, D forms with d. Primed or numbered codes have the meaning given here. PyrS(3) = (S)-1-((allyloxy)carbonyl)-3-aminopyrrolidine-3-carboxylic acid, stapling residue, C=CCOC(=O)N1CC[C@@](N[*:1])(C(=O)[*:2])C1; PyrS″ = (S)-1-((allyloxy)carbonyl)-3-aminopyrrolidine-3-carboxylic acid (stapling residue), C=CCOC(=O)N1CC[C@@](N[*:1])(C(=O)[*:2])C1; PyrS = (S)-1-((allyloxy)carbonyl)-3-aminopyrrolidine-3-carboxylic acid, C=CCOC(=O)N1CC[C@@](N[*:1])(C(=O)[*:2])C1; Phe(4-CONH2) = NC(=O)c1ccc(C[C@H](N)C(=O)O)cc1; Phe(3-OMe) = COc1cccc(C[C@H](N)C(=O)O)c1; Ala(cPent) = N[C@@H](CC1CCCC1)C(=O)O; hPhe = N[C@@H](CCc1ccccc1)C(=O)O; R8 = C=CCCCCCC[C@@](C)(N)C(=O)O

The labels stand for the following.
B1: I-98 (peptide)
peptide: Ac-FDA[R8]D[hPhe]AAFV[PyrS″]FWQ-NH2
modifications: staple 4-11; not fully specified; printed as Ac-Phe-Asp-Ala-R8-Asp-hPhe-Ala-Ala-Phe-Val-PyrS-Phe-Trp-Gln-NH2
notes: Stapled peptide composition; same description as I-97, separate later-eluting HPLC peak (staple isomer)
B2: I-96 (peptide)
peptide: Ac-FDA[R8]DDAA[Ala(cPent)]V[PyrS]FWQ-NH2
modifications: staple 4-11
notes: Stapled peptide composition; same description as I-95, separate later-eluting HPLC peak (staple isomer)
B3: I-92 (peptide)
peptide: Ac-FDA[R8]DDAA[Phe(4-CONH2)]V[PyrS″]FWQ-NH2
modifications: staple 4-11
notes: Stapled peptide composition; same description as I-91, separate later-eluting HPLC peak (staple isomer)
B4: I-97 (peptide)
peptide: Ac-FDA[R8]D[hPhe]AAFV[PyrS″]FWQ-NH2
modifications: staple 4-11; not fully specified; printed as Ac-Phe-Asp-Ala-R8-Asp-hPhe-Ala-Ala-Phe-Val-PyrS-Phe-Trp-Gln-NH2
notes: Stapled peptide composition; same description as I-98, separate earlier-eluting HPLC peak (staple isomer)
B5: I-103 (peptide)
peptide: Ac-FDA[R8]DDAA[Phe(3-OMe)]V[PyrS″]FWQ-NH2
modifications: staple 4-11; not fully specified; printed as Ac-Phe-Asp-Ala-R8-Asp-Asp-Ala-Ala-3OMeF-Val-PyrS-Phe-Trp-Gln-NH2
notes: Stapled peptide composition
B6: I-91 (peptide)
peptide: Ac-FDA[R8]DDAA[Phe(4-CONH2)]V[PyrS″]FWQ-NH2
modifications: staple 4-11
notes: Stapled peptide composition; same description as I-92, separate earlier-eluting HPLC peak (staple isomer)
B7: I-100 (peptide)
peptide: Ac-FDA[R8]DFAAFV[PyrS″]FWQ-NH2
modifications: staple 4-11
notes: Stapled peptide composition; same description as I-99, separate later-eluting HPLC peak (staple isomer)
B8: I-121 (peptide)
peptide: Ac-FDA[R8]DDAAFV[PyrS(3)]DWQ-NH2
modifications: staple 4-11
notes: Stapled peptide composition
B9: I-99 (peptide)
peptide: Ac-FDA[R8]DFAAFV[PyrS]FWQ-NH2
modifications: staple 4-11; not fully specified; printed as Ac-Phe-Asp-Ala-R8-Asp-Phe-Ala-Ala-Phe-Val-PyrS-Phe-Trp-Gln-NH2
notes: Stapled peptide composition; same description as I-100, separate earlier-eluting HPLC peak (staple isomer)
B10: I-122 (peptide)
peptide: Ac-FDA[R8]DDAAFV[PyrS″]DWQ-NH2
modifications: staple 4-11; not fully specified; printed as Ac-Phe-Asp-Ala-R8-Asp-Asp-Ala-Ala-Phe-Val-PyrS-Asp-Trp-Gln-NH2
notes: Stapled peptide composition
B11: I-94 (peptide)
peptide: Ac-FDA[R8]DDAAFV[PyrS][Ala(cPent)]WQ-NH2
modifications: staple 4-11
notes: Stapled peptide composition; same description as I-93, separate later-eluting HPLC peak (staple isomer)
B12: I-93 (peptide)
peptide: Ac-FDA[R8]DDAAFV[PyrS″][Ala(cPent)]WQ-NH2
modifications: staple 4-11
notes: Stapled peptide composition; same description as I-94, separate earlier-eluting HPLC peak (staple isomer)
B13: I-95 (peptide)
peptide: Ac-FDA[R8]DDAA[Ala(cPent)]V[PyrS″]FWQ-NH2
modifications: staple 4-11
notes: Stapled peptide composition; same description as I-96, separate earlier-eluting HPLC peak (staple isomer)
B14: I-102 (peptide)
peptide: Ac-FDA[R8]DDAAFV[PyrS″][Phe(3-OMe)]WQ-NH2
modifications: staple 4-11; not fully specified; printed as Ac-Phe-Asp-Ala-R8-Asp-Asp-Ala-Ala-Phe-Val-PyrS-3OMeF-Trp-Gln-NH2
notes: Stapled peptide composition
B15: I-101 (peptide)
peptide: Ac-FDA[R8]DDAAFV[PyrS″][Phe(3-OMe)]WQ-NH2
modifications: staple 4-11; not fully specified; printed as Ac-Phe-Asp-Ala-R8-Asp-Asp-Ala-Ala-Phe-Val-PyrS-3OMeF-Trp-Gln-NH2
notes: Stapled peptide composition

For this test, the target named is T1, full-length beta-Catenin (Uniprot ID P35222) (Homo sapiens (Human), UniProt P35222 2-781).
T1 construct: also called B-Catenin; bCat
T1 sequence: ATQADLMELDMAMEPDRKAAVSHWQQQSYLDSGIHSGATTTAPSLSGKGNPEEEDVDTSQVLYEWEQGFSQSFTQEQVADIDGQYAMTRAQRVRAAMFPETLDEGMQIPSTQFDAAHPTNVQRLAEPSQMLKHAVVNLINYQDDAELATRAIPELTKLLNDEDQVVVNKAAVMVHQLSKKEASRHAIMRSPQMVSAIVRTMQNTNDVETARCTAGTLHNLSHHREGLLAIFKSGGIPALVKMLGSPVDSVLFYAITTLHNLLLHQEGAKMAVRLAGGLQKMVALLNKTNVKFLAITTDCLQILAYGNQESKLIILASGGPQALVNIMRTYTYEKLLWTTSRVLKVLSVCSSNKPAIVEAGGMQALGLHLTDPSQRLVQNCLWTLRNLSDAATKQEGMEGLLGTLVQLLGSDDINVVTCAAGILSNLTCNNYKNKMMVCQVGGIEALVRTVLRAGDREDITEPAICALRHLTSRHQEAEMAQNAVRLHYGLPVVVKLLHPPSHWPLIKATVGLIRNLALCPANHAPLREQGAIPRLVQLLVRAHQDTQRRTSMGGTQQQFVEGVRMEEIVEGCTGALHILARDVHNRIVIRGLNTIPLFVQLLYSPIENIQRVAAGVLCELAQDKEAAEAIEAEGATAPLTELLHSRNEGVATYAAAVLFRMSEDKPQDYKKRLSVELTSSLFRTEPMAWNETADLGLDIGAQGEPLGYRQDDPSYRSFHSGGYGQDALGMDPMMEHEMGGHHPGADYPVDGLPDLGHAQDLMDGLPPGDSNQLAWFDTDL
As to the kind of experiment: Alphascreen competition; biotin-TCF4(10-53) probe with full-length beta-catenin. As to the method: Equal volume of the titrated peptide was added to the plate and incubated for 15 minutes at 20° C. Then 4 uL of donor and 4 uL acceptor beads at 10 ug/mL were added to the plate, for a 16 uL reaction pool and protected from light for 60 minutes at 20° C. prior to read. Reads were performed on a CLARIOstar plate reader (BMG Labtech) in duplicate, and data were fitted to a 1:1 binding model with hill slope using an in-house script. All provided concentrations are final concentrations.
A general note: Alpha assays give light when donor and acceptor beads are brought close together.
Molecule B1 yielded a concentration giving a half-maximal response (EC50) of no less than 10 µM.
For B2, the EC50 was no less than 10 µM.
Regarding B3, the EC50 was 9.15 µM.
In turn, B4 registered an EC50 of 7.01 µM.
Then B5, with 4.95 µM; and B6, with 4.72 µM.
The same measure for B7: 9.23 µM; for B8: 4.46 µM.
The same measure for B9: no less than 10 µM; for B10: no less than 10 µM.
B11: a half-maximal response (EC50) required 7.01 µM.
The same measure for B12: no less than 10 µM; for B13: 8.66 µM; for B14: no less than 10 µM.
For B15, the EC50 is no less than 10 µM.
